Measured values from paper PMC7790415, “Loss of endocytosis-associated RabGEF1 causes aberrant morphogenesis and altered autophagy in photoreceptors leading to retinal degeneration” (PLoS Genetics, 2020).
Values joined by “and” are separate entries in the source; they are usually repeats but may differ in a detail not shown here. Equal values may be shown once.

Target: T1, RabGEF1 (mouse (endogenous in retina), UniProt Q9JM13 1-491)
T1 construct: RabGEF1 (Rabex-5), mouse, endogenous protein of retinal extracts, immunoprecipitated with anti-RabGEF1 antibody; Endogenous protein; also called Rabex-5; Rabex5; source: endogenous, mouse retina extract (control retina)
Test: affinity purification with mass spectrometry; anti-RabGEF1 and IgG immunoprecipitates from control and Rabgef1-/- mouse retinal lysates; trypsin digest, LC-MS on Orbitrap Lumos (n = 2)
Conditions: partners not purified

T1 sequence (Q9JM13 whole entry): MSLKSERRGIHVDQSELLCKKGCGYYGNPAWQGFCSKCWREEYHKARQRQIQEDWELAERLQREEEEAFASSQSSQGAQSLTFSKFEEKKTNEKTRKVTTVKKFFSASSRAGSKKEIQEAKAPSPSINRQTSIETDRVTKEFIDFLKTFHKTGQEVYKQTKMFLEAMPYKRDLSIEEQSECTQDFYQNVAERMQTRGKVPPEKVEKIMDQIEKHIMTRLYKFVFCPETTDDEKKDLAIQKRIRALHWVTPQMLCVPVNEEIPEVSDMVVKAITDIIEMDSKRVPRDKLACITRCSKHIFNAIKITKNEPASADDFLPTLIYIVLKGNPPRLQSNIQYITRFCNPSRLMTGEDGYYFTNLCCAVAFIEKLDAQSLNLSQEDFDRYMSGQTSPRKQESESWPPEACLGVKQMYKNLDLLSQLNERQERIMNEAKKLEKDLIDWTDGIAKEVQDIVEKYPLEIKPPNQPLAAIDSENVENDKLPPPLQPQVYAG

B1: Rabaptin-5 (natural protein, mouse (endogenous in retina), UniProt O35551 1-862, looked up)
chain: MAQPGPAPQPDVSLQQRVAELEKINAEFLRAQQQLEQEFNQKRAKFKELYLAKEEDLKRQNAVLQAAQDDLGHLRTQLWEAQAEMENIKAIATVSENTKQEAIDEVKRQWREEVASLQAIMKETVRDYEHQFHLRLEQERAQWAQYRESAEREIADLRRRLSEGQEEENLENEMKKAQEDAEKLRSVVMPMEKEIAALKDKLTEAEDKIKELEASKVKELNHYLEAEKSCRTDLEMYVAVLNTQKSVLQEDAEKLRKELHEVCHLLEQERQQHNQLKHTWQKANDQFLESQRLLMRDMQRMEIVLTSEQLRQVEELKKKDQEEDEQQRVNKRKDNKKTDTEEEVKIPVVCALTQEESSTPLSNEEEHLDSTHGSVHSLDADLMLPSGDPFSKSDNDMFKDGLRRAQSTDSLGTSSSLQSKALGYNYKAKSAGNLDESDFGPLVGADSVSENFDTVSLGSLQMPSGFMLTKDQERAIKAMTPEQEETASLLSSVTQGMESAYVSPSGYRLVSETEWNLLQKEVHNAGNKLGRRCDMCSNYEKQLQGIQIQEAETRDQVKKLQLMLRQANDQLEKTMKEKQELEDFLKQSAEDSSHQISALVLRAQASEVLLEELQQSFSQAKRDVQEQMAVLMQSREQVSEELVRLQKDNDSLQGKHSLHVSLQLAEDFILPDTVEVLRELVLKYRENIVHVRTAADHMEEKLKAEILFLKEQIQAEQCLKENLEETLQLEIENCKEEIASISSLKAELERIKVEKGQLESTLREKSQQLESLQEMKVNLEEQLKKETAAKATVEQLMFEEKNKAQRLQTELDVSEQVQRDFVKLSQTLQVQLERIRQADSLERIRAILNDTKLTDINQLPET
notes: Rabaptin-5 (also known as Rabep1), mouse, endogenous protein of retinal extracts; Endogenous protein; also called Rabep1; source: endogenous, mouse retina extract (control retina)
  stoichiometry N: 0.5 Rabaptin-5 per RabGEF1 (printed as RabGEF1:Rabaptin-5 2:1) and 2 Rabaptin-5 per RabGEF1 (printed as RabGEF1:Rabaptin-5 1:2)
